We go through 4 molecules from US8143216B2, “Modified human growth hormone” (Ambrx, Inc., priority 2004, dated 2012).

For orientation: kon means the rate constant with which the complex forms.

In test [1] the test system is rat model of growth hormone deficiency (hypophysectomized rats). The test can be described thus: Efficacy studies of PEGylated hGH in a rat model of growth hormone deficiency (Example 34). The test is classed as in vivo. How it is done: Preclinical efficacy studies were conducted in a rat model of growth hormone deficiency. In this model, the pituitary gland was surgically removed at approximately 4 weeks of age. The body weights of these hypophysectomized rats were monitored after surgery and animals showing less than 7.5 grams of bodyweight gain over a period of 7 days before the study were deemed successfully hypophysectomized and were randomized amongst the treatment groups. Animals showing more than 2.5 g of weight-loss were deemed not healthy and were excluded from the study. The study was initiated approximately 3 weeks after the surgery.
Animals were dosed weekly (i.e. dosed on days 0 and 7) with either placebo or increasing PEG-^ahGH dose. An additional treatment group received Genotropin or placebo daily. Bodyweights and blood were collected predose and daily. All animals were sacrificed on day 14.
For this parameter, the AUC is expressed as AUC above the efficacious IGF-1 plasma level. […] In the current study, the baseline IGF-1 level determined from the placebo group throughout the study was 128 ng/mL. An increase of 34 ng/mL over 128 ng/mL estimates an efficacious IGF-1 level of 162 ng/mL. Thus the AUC above 162 ng/mL was integrated. From this analysis, a dose-dependent increase in AUC above efficacious level was observed after each dose interval.
The duration of IGF-1 levels induced above the estimated efficacious level after the first dose was determined. At the higher doses, the IGF-1 levels had not returned to baseline before the second dose. In these instances, the IGF-1 concentration was extrapolated to the efficacious level using the calculated terminal slopes. From this evaluation, a dose-dependent increase in duration of IGF-1 concentration above the efficacious level was evident.
Bone growth was used as an additional pharmacodynamic measure to calculate the PEG-^ahGH ED50. Tibias were collected from each animal at the end of the study and immersion fixed in 10% neutral-buffered formalin followed by radiography. There was a clear dose-dependent increase in tibial bone length for the PEG-^ahGH treated animals. Moreover, there was a dose sparing effect compared to the daily Genotropin treated animals. The amount of Genotropin administered over a 7-day interval is equivalent to 2.1 mg/kg of PEG-^ahGH given weekly (i.e., days 0 and 7). An induction of tibial bone length increase similar to Genotropin is shown for PEG-^ahGH at 0.42 to 1.0 mg/kg. This represents a ≧50% dose-sparing effect for PEG-^ahGH when compared to Genotropin.

Test [2] concerns the target T1, human growth hormone receptor on IM-9 cells (Homo sapiens, UniProt P10912).
T1 construct: host or cells: human IM-9 lymphocyte cell line
T1 sequence (P10912 19-638): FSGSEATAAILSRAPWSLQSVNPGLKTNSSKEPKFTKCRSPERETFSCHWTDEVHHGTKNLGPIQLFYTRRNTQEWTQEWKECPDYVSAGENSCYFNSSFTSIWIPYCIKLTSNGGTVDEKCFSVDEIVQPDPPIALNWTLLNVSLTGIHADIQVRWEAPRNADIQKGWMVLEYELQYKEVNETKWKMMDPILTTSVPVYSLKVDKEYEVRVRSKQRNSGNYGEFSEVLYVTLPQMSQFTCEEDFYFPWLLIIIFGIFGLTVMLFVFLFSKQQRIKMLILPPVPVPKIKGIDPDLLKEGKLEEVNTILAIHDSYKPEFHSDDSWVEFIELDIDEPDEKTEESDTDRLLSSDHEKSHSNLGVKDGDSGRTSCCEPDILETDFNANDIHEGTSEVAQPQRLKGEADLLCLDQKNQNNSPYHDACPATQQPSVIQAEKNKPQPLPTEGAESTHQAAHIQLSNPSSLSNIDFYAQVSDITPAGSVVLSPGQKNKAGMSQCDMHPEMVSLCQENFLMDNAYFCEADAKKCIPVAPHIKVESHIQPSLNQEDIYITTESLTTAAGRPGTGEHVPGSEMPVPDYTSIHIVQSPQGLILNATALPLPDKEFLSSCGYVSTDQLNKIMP
The test can be described thus: IM-9 pSTAT5 bioassay (STAT5 phosphorylation in IM-9 cells). In kind it is cell-based. The following applies: IM-9 cells. An excerpt: To further assess the biological activity of modified hGH polypeptides, an assay measuring a downstream marker of hGH's interaction with its receptor was used. The interaction of hGH with its endogenously produced receptor leads to the tyrosine phosphorylation of a signal transducer and activator of transcription family member, STAT5, in the human IM-9 lymphocyte cell line. Two forms of STAT5, STAT5A and STAT5B were identified from an IM-9 cDNA library. See, e.g., Silva et al., Mol. Endocrinol. (1996) 10(5):508-518.
IM-9 cells were stimulated with hGH polypeptides of the present invention. The human IM-9 lymphocytes were purchased from ATCC (Manassas, Va.) and grown in RPMI 1640 supplemented with sodium pyruvate, penicillin, streptomycin (Invitrogen, Carlsbad, San Diego) and 10% heat inactivated fetal calf serum (Hyclone, Logan, Utah). The IM-9 cells were starved overnight in assay media (phenol-red free RPMI, 10 mM Hepes, 1% heat inactivated charcoal/dextran treated FBS, sodium pyruvate, penicillin and streptomycin) before stimulation with a 12-point dose range of hGH polypeptides for 10 min at 37° C. Stimulated cells were fixed with 1% formaldehyde before permeabilization with 90% ice-cold methanol for 1 hour on ice. The level of STAT5 phosphorylation was detected by intra-cellular staining with a primary phospho-STAT5 antibody (Cell Signaling Technology, Beverly, Mass.) at room temperature for 30 min followed by a PE-conjugated secondary antibody. Sample acquisition was performed on the FACS Array with acquired data analyzed on the Flowjo software (Tree Star Inc., Ashland, Oreg.). EC50 values were derived from dose response curves plotted with mean fluorescent intensity (MFI) against protein concentration utilizing SigmaPlot.
The interaction of hGH with its receptor leads to the tyrosine phosphorylation of a signal transducer and activator of transcription family member, STAT5, in the human IM-9 lymphocyte cell line.

Test [3] deals with T2, rat GHR ECD (L43R) (Rattus norvegicus, UniProt P16310, L61R).
T2 construct: (GHR ECD, amino acids S29-T238) was cloned into pET20b vector; made in house
T2 sequence (P16310 47-256 L61R): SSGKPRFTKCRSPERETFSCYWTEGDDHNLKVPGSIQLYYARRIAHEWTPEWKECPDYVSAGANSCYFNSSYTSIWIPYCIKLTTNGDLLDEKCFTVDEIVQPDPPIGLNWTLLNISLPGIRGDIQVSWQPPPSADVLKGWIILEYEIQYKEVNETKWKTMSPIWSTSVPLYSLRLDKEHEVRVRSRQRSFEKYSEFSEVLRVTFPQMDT
The test can be described thus: Biacore analysis of binding of GH to GHR. The following applies: rat GHR ECD (L43R) immobilized on a CM5 chip, bivalent analyte model. How it is done: Cloning and purification of rat GH receptor The extracellular domain of rat GH receptor (GHR ECD, amino acids S29-T238) was cloned into pET20b vector (Novagen) between Nde I and Hind III sites in frame with C-terminal 6H is tag. A mutation of L43 to R was introduced to further approximate the human GH receptor binding site (Souza et al., Proc Natl Acad Sci USA. (1995) 92(4): 959-63). Recombinant protein was produced in BL21 (DE3) E. coli cells (Novagen) by induction with 0.4 mM IPTG at 30° C. for 4-5 hours. After lysing the cells, the pellet was washed four times by resuspending in a dounce with 30 mL of 50 mM Tris, pH 7.6, 100 mM NaCl, 1 mM EDTA, 1% Triton X-100, and twice with the same buffer without Triton X-100. […] Refolding was accomplished by means of passing an aliquot of the inclusion body solution through a S100 (Sigma) gel filtration column, equilibrated with 50 mM Tris, pH 7.8, 1 M L-arginine, 3.7 mM cystamine, 6.5 mM cysteamine. Fractions containing soluble protein were combined and dialyzed against 50 mM Tris, pH 7.6, 200 mM NaCl, 10% glycerol. The sample was briefly centrifuged to remove any precipitate and incubated with an aliquot of Talon resin (Clontech), according to manufacturer's instructions. After washing the resin with 20 volumes of dialysis buffer supplemented with 5 mM imidazole, protein was eluted with 120 mM imidazole in dialysis buffer. Finally, the sample was dialyzed overnight against 50 mM Tris, pH 7.6, 30 mM NaCl, 1 mM EDTA, 10% glycerol, centrifuged briefly to remove any precipitate, adjusted to 20% glycerol final concentration, aliquoted and stored at −80 C. Concentration of the protein was measured by OD(280) using calculated extinction coefficient of ε=65,700 M^−1*cm^−1.
Approximately 600-800 RUs of soluble GHR ECD was immobilized on a Biacore™ CM5 chip, using a standard amine-coupling procedure, as recommended by the manufacturer. […] See, e.g., Cunningham et al. J Mol. Biol. (1993) 234(3): 554-63 and Wells J A. Proc Natl Acad Sci USA (1996) 93(1): 1-6).
Various concentrations of wild type or mutant GH (0.1-300 nM) in HBS-EP buffer (Biacore™, Pharmacia) were injected over the GHR surface at a flow rate of 40 μl/min for 4-5 minutes, and dissociation was monitored for 15 minutes post-injection. The surface was regenerated by a 15 second pulse of 4.5M MgCl2. […] Reference cell with no receptor immobilized was used to subtract any buffer bulk effects and non-specific binding.
Kinetic binding data obtained from GH titration experiments was processed with BiaEvaluation 4.1 software (BIACORE™). […] Equilibrium dissociation constants (Kd) were calculated as ratios of individual rate constants (koff/kon).
Background: Surface plasmon resonance follows binding to a sensor surface in real time, without labels.

Take “Genotropin: commercial preparation of hGH, Genotropin™ (Pfizer) [reference compound]”: in test [1] (daily treatment at 0.3 mg/kg/day), the “bodyweight change on day 14 from day 0” value was 27.74 (+/−7.92) %.

Turning to “unPEGylated GH: unPEGylated GH administered weekly at 2.1 mg/kg in hypophysectomized rats [reference compound]”, the body weight gain result in test [1] (weekly at 2.1 mg/kg dose) was “failed to induce body weight gain”.

B1: rat GH WT: wild type rat growth hormone (protein)
chain: FPAMPLSSLFANAVLRAQHLHQLAADTYKEFERAYIPEGQRYSIQNAQAAFCFSETIPAPTGKEEAQQRTDMELLRFSLLLIQSWLGPVQFLSRIFTNSLMFGTSDRVYEKLKDLEEGIQALMQELEDGSPRIGQILKQTYDKFDANMRSDDALLKNYGLLSCFKKDLHKAETYLRVMKCRRFAESSCAF
With B1, the STAT5 phosphorylation result in test [2] is given as “neither rat growth hormone nor human prolactin resulted in detectable STAT5 phosphorylation”. In test [3], this molecule returned an on-rate (kon) of 33000 M⁻¹ s⁻¹.

B2: human prolactin: human prolactin (protein)
chain: LPICPGGAARCQVTLRDLFDRAVVLSHYIHNLSSEMFSEFDKRYTHGRGFITKAINSCHTSSLATPEDKEQAQQMNQKDFLSLIVSILRSWNEPLYHLVTEVRGMQEAPEAILSKAVEIEEQTKRLLEGMELIVSQVHPETKENEIYPVWSGLPSLQMADEESRLSAYYNLLHCLRRDSHKIDNYLKLLKCRIIHNNNC
Take B2: the STAT5 phosphorylation result in test [2] is listed as “neither rat growth hormone nor human prolactin resulted in detectable STAT5 phosphorylation”.
